Results reported in article doi:10.1101/854158 (bioRxiv, 2019).

B1: FANCG (natural protein)
chain: MSRQTTSVGSSCLDLWREKNDRLVRQAKVAQNSGLTLRRQQLAQDALEGLRGLLHSLQGLPAAVPVLPLELTVTCNFIILRASLAQGFTEDQAQDIQRSLERVLETQEQQGPRLEQGLRELWDSVLRASCLLPELLSALHRLVGLQAALWLSADRLGDLALLLETLNGSQSGASKDLLLLLKTWSPPAEELDAPLTLQDAQGLKDVLLTAFAYRQGLQELITGNPDKALSSLHEAASGLCPRPVLVQVYTALGSCHRKMGNPQRALLYLVAALKEGSAWGPPLLEASRLYQQLGDTTAELESLELLVEALNVPCSSKAPQFLIEVELLLPPPDLASPLHCGTQSQTKHILASRCLQTGRAGDAAEHYLDLLALLLDSSEPRFSPPPSPPGPCMPEVFLEAAVALIQAGRAQDALTLCEELLSRTSSLLPKMSRLWEDARKGTKELPYCPLWVSATHLLQGQAWVQLGAQKVAISEFSRCLELLFRATPEEKEQGAAFNCEQGCKSDAALQQLRAAALISRGLEWVASGQDTKALQDFLLSVQMCPGNRDTYFHLLQTLKRLDRRDEATALWWRLEAQTKGSHEDALWSLPLYLESYLSWIRPSDRDAFLEEFRTSLPKSCDL

Assays:
Assay in all cases: cryo-EM structure
[1] = target: T1, FANCC (human, UniProt Q00597 1-558)
T1 sequence: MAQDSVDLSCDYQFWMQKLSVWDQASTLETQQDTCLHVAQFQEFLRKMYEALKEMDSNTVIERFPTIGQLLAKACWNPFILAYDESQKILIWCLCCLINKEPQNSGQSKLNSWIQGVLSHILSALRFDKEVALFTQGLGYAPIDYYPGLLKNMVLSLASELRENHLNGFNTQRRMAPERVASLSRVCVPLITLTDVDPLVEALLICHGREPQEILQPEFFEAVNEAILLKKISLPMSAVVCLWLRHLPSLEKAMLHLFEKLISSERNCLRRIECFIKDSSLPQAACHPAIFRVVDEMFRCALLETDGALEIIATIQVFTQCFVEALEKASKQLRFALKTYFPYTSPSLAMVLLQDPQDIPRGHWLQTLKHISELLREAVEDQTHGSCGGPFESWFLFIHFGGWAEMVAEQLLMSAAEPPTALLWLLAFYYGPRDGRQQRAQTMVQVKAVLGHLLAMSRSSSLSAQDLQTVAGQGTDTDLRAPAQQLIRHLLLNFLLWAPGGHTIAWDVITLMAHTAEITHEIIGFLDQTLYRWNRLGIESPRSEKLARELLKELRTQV

[2] = target: B1
[3] = target: T2, FANCB (human, UniProt Q8NB91 1-859)
T2 sequence: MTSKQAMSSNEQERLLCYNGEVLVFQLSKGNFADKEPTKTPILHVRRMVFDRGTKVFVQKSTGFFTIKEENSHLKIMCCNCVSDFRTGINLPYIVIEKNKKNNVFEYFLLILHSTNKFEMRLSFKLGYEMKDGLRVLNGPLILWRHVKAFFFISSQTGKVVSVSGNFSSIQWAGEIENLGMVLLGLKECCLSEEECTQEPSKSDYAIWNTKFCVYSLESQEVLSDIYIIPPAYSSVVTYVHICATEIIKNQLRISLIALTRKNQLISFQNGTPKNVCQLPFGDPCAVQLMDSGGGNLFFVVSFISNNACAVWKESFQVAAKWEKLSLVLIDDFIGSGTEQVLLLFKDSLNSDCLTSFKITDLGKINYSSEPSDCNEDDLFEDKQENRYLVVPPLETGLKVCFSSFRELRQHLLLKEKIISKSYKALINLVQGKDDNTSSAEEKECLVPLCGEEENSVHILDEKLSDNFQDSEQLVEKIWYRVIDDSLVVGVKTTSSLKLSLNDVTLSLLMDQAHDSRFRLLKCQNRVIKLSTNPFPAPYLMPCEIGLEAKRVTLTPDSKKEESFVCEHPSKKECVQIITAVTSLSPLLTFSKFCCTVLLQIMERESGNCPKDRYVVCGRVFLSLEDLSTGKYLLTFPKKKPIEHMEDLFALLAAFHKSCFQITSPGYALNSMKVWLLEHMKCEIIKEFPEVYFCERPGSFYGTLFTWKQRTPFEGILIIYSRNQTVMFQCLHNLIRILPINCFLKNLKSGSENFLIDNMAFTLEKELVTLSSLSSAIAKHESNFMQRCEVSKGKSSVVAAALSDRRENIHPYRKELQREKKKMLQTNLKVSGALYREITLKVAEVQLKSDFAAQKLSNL

[4] = target: T3, FANCA (human, UniProt O15360 1-1455)
T3 sequence: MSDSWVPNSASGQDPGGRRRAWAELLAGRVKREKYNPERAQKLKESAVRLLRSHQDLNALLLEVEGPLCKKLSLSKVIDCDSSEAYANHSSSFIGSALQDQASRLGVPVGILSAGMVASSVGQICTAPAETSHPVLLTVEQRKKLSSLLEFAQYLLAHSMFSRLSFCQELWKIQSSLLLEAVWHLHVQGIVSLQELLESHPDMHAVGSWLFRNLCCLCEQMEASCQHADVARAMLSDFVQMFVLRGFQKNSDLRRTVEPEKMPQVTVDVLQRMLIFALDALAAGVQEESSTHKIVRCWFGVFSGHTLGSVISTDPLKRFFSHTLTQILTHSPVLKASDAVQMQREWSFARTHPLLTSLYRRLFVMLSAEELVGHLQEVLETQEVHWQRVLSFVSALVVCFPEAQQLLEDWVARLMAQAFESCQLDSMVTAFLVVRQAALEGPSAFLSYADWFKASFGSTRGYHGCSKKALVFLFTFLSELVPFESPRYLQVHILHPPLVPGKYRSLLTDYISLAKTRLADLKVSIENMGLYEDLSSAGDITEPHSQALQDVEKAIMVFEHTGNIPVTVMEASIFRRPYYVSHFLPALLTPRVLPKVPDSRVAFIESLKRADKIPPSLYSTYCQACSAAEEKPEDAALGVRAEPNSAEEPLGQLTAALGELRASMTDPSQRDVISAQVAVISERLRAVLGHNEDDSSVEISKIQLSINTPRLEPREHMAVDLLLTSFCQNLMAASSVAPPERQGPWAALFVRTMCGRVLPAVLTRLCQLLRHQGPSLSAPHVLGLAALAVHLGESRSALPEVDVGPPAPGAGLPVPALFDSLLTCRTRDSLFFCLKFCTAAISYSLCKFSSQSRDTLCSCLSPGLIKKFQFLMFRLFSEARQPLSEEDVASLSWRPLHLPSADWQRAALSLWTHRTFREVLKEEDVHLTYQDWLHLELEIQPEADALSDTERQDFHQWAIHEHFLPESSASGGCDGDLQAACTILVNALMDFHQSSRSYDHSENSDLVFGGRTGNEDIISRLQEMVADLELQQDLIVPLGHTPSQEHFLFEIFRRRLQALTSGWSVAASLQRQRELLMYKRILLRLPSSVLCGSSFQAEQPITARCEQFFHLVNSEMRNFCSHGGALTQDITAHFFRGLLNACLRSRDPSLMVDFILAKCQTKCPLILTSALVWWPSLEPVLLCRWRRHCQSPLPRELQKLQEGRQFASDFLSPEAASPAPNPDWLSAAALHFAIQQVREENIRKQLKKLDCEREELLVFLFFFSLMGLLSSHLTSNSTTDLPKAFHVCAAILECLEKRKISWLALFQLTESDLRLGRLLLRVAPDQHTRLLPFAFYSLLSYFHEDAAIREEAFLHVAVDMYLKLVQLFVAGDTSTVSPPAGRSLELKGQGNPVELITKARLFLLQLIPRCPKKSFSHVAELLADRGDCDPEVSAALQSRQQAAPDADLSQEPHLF

[5] = target: T4, FAAP100 (human, UniProt Q0VG06 1-881)
T4 sequence: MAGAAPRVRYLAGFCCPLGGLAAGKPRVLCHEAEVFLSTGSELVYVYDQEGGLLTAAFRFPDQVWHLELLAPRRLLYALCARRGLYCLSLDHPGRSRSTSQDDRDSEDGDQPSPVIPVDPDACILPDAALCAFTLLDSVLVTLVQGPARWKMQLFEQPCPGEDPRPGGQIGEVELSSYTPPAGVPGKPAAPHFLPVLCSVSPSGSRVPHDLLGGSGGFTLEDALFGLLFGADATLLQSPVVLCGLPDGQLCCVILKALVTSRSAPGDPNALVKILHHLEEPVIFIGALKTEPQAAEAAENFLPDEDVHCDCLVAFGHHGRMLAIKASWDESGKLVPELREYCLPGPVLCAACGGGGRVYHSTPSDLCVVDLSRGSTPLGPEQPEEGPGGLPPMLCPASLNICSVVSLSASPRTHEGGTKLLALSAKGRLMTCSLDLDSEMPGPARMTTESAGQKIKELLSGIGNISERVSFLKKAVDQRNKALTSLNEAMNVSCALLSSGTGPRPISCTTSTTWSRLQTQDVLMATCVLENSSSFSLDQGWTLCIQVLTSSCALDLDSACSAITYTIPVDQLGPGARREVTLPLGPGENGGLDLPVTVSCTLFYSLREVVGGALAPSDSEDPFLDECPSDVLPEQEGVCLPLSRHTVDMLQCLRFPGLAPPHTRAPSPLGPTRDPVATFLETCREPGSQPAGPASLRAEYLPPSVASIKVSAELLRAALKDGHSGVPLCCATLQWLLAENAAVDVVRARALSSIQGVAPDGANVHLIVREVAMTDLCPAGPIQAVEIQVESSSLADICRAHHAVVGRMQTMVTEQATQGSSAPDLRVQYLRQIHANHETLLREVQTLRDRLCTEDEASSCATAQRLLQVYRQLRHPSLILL

Row | Binder | binding result [1] | binding result [2] | binding result [3] | binding result [4] | binding result [5]
1 | FANCF (natural protein) MESLLQHLDRFSELLAVSSTTYVSTWDPATVRRALQWARYLRHIHRRFGRHGPIRTALERRLHNQWRQEGGFGRGPVPGLANFQALGHCDVLLSLRLLENRALGDAARYHLVQQLFPGPGVRDADEETLQESLARLARRRSAVHMLRFNGYRENPNLQEDSLMKTQAELLLERLQEVGKAEAERPARFLSSLWERLPQNNFLKVIAVALLQPPLSRRPQEELEPGIHKSPGEGSQVLVHWLLGNSEVFAAFCRALPAGLLTLVTSRHPALSPVYLGLLTDWGQRLHYDLQKGIWVGTESQDVPWEELHNRFQSLCQAPPPLKDKVLTALETCKAQDGDFEVPGLSIWTDLLLALRSGAFRKRQVLGLSAGLSSV | binds | binds |  |  | 
2 | B1 |  |  | binds | binds | binds
